Test results published in patent US20260008817A1, “CYCLIC PEPTIDE OR SALT THEREOF, AND USES THEREOF” (FUJIFILM Corporation, priority 2023, published 2026).

Each substance was assayed against T1, Recombinant Human FGFR1 alpha (IIIc) Fc Chimera Protein (Homo sapiens, UniProt P11362) (assay: ELISA binding affinity of enzymatically synthesized peptide to FGFR). Settings: ELISA luminescence signal at 10 nmol/L peptide, SEQ ID NO: 239 standardized to 1; enzyme synthesis product.
T1 construct: purchased R&D systems 658-FR-050
T1 sequence (P11362 with tags, fused parts or gaps limits assumed): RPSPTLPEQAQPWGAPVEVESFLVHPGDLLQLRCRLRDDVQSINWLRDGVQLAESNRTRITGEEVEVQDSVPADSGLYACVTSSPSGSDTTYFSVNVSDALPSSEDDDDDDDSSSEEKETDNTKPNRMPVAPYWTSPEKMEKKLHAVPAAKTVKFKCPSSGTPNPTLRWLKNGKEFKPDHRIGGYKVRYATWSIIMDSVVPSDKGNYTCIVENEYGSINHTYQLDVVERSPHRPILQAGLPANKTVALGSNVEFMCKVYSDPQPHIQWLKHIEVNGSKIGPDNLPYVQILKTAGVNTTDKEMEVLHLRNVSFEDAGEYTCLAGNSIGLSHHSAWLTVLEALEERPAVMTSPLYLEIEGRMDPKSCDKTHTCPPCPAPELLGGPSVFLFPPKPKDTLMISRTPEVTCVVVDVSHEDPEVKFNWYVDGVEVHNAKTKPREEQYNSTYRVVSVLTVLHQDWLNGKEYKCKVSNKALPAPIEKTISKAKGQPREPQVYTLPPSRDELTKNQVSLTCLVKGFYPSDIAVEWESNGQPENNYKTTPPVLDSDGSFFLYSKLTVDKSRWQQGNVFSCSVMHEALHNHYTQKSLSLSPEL
Method: The binding affinity of the peptide to FGFR was evaluated using an ELISA method.
The peptide used for the evaluation was enzymatically synthesized by the following method.
First, a fusion peptide (SEQ ID NO: 25) in which a translation enhancing sequence (SEQ ID NO: 22), a peptide, a Myc tag (SEQ ID NO: 23), and a HiBiT tag (SEQ ID NO: 24) were linked in this order was designed. Next, a template DNA sequence (SEQ ID NO: 26) was designed in which a T7 promoter sequence, a Shine-Dalgarno sequence, a sequence necessary for transcription and translation initiation, such as a start codon (ATG), was provided on the 5′ terminal side of the DNA sequence encoding the fused peptide, and a stop codon group was provided on the 3′ terminal side thereof. In a case where the triplet TAG codon is included in the template DNA sequence, the above-described codon is assigned to the codon of chloroacetylated lysine, and thus, the peptide encoded by the above-described DNA sequence is a cyclic peptide in which a thiol group of cysteine and a chloroacetyl group of chloroacetylated lysine spontaneously form a thioether bond.
The cell-free enzymatic synthesis of the polypeptide was performed in a translation solution containing a template DNA, PUREfrex 2.0 (GeneFrontier, PF201-0.25-5), and Aminoacyl tRNA (1). 1.75 μL ([…]) of the template DNA prepared to 50 ng/μL, 2.5 μL of PUREfrex 2.0 Solution I, 0.25 μL of Solution II, 0.5 μL of Solution III, and a dried product of Aminoacyl tRNA (1) (final concentration: 0.5 ng/μL) were mixed and mixture was subjected to a reaction at 37° C. for 1 hour.
The concentration of the enzymatically synthesized peptide was measured using the peptide diluted with Can Get Signal Immunoreaction Enhancer Solution I (TOYOBO, NKB-101), Nano-Glo HiBiT Lytic Detection System (Promega, N3040), and a chemical synthetic peptide for a calibration curve having a known concentration (SEQ ID NO: 33) according to the standard protocol of the Nano-Glo HiBiT Lytic Detection System.
The binding affinity of the enzymatically synthesized peptide to FGFR was measured by evaluating the amount of the peptide bound to FGFR by ELISA.
First, 5 ng of Recombinant Human FGFR1 alpha (IIIc) Fc Chimera Protein (R&D systems, 658-FR-050) was immobilized in each well of a 96-well plate, and blocked with Pierce Protein-Free (PBS) Blocking Buffer (Thermo, 37572), and a peptide diluted with Can Get Signal Immunoreaction Enhancer Solution I (TOYOBO, NKB-101) was then added and reacted at room temperature for 3 hours. After washing with 0.05% Tween 20-containing phosphate buffered saline (PBS), an anti-Myc antibody (Cell Signaling, 14038S) diluted with Can Get Signal Immunoreaction Enhancer Solution II (TOYOBO, NKB-101) was added and reacted at room temperature for 2 hours. After washing with 0.05% Tween 20-containing PBS, SuperSignal ELISA Femto Substrate (Thermo, 37075) was added, and the luminescence amount was measured. The dose-response relationship was calculated from using the difference between the luminescence amount in the well in which FGFR was immobilized and the luminescence amount in the well in which FGFR was not immobilized, and the concentration of the peptide at the time of reaction, and the binding affinity to FGFR was evaluated according to the following evaluation criteria. The evaluation result preferably satisfies the evaluation criteria A, B, or C.
In a case where a value of a luminescence signal emitted by the cyclic peptide set forth in SEQ ID NO: 239 at a reaction concentration of 10 nmol/L is standardized to 1, evaluation criteria of the luminescence signal value emitted by the peptide at a reaction concentration of 10 nmol/L is as follows. • A: 0.7 or more • B: 0.5 or more and less than 0.7 • C: 0.1 or more and less than 0.5 • D: less than 0.1.

Evaluation result of binding affinity to FGFR, A (0.7 or more):
117 (ICVYTFDARAHSLHAALTKI; Description of Artificial Sequence: Cyclic peptide) [compound 117]
131 (ICVYTFDAHAASLHAALTKI; Description of Artificial Sequence: Cyclic peptide) [compound 131]
132 (ICVYTFDAHAGSLHAALTKI; Description of Artificial Sequence: Cyclic peptide) [compound 132]
133 (ICVYTFDAHAPSLHAALTKI; Description of Artificial Sequence: Cyclic peptide) [compound 133]
134 (ICVYTFDAHALSLHAALTKI; Description of Artificial Sequence: Cyclic peptide) [compound 134]
136 (ICVYTFDAHAVSLHAALTKI; Description of Artificial Sequence: Cyclic peptide) [compound 136]

Evaluation result of binding affinity to FGFR, C (0.1 or more and less than 0.5):
118 (ICVYTFDAHGHSLHAALTKI; Description of Artificial Sequence: Cyclic peptide) [compound 118]
119 (ICVYTFDAHIHSLHAALTKI; Description of Artificial Sequence: Cyclic peptide) [compound 119]
120 (ICVYTFDAHVHSLHAALTKI; Description of Artificial Sequence: Cyclic peptide) [compound 120]
121 (ICVYTFDAHFHSLHAALTKI; Description of Artificial Sequence: Cyclic peptide) [compound 121]
122 (ICVYTFDAHYHSLHAALTKI; Description of Artificial Sequence: Cyclic peptide) [compound 122]
123 (ICVYTFDAHWHSLHAALTKI; Description of Artificial Sequence: Cyclic peptide) [compound 123]
125 (ICVYTFDAHSHSLHAALTKI; Description of Artificial Sequence: Cyclic peptide) [compound 125]
126 (ICVYTFDAHTHSLHAALTKI; Description of Artificial Sequence: Cyclic peptide) [compound 126]
127 (ICVYTFDAHDHSLHAALTKI; Description of Artificial Sequence: Cyclic peptide) [compound 127]
128 (ICVYTFDAHEHSLHAALTKI; Description of Artificial Sequence: Cyclic peptide) [compound 128]
129 (ICVYTFDAHRHSLHAALTKI; Description of Artificial Sequence: Cyclic peptide) [compound 129]
130 (ICVYTFDAHHHSLHAALTKI; Description of Artificial Sequence: Cyclic peptide) [compound 130]

Evaluation result of binding affinity to FGFR, B (0.5 or more and less than 0.7):
124 (ICVYTFDAHQHSLHAALTKI; Description of Artificial Sequence: Cyclic peptide) [compound 124]
135 (ICVYTFDAHAISLHAALTKI; Description of Artificial Sequence: Cyclic peptide) [compound 135]
